Experiments:
PANC-1 [1] = test: JC-1 assay, mitochondrial membrane depolarization; format: cell-based, Human; conditions: 16h
Method: To evaluate the in vitro apoptotic effect of recombinant lectin having the amino acid sequence of SEQ ID NO.2 in MDA-MB-231 (breast cancer) and PANG-1 (pancreatic cancer) cell line by JC-1 assay, an increase in mitochondrial membrane depolarization was used as a marker of apoptosis. […] 2 using JC-1 dye based method. […] The cell lines were grown in Dulbecco's Modified Eagle Medium (DMEM)+10% heat inactivated FBS at 37° C. (95% humidity and 5% CO2). […] Recombinant lectin having the amino acid sequence of SEQ ID NO. 2 was diluted in serum free medium. Doxorubicin was used as positive control and stock solution was prepared in dimethyl sulfoxide (DMSO). […] The cells were then incubated overnight under growth conditions to allow the cell recovery and exponential growth. Cells were treated with the recombinant lectin of SEQ ID NO. […] Following respective treatments the cells in the above plate were incubated for 16h in CO2 incubator at 37° C., 5% CO2 and 95% humidity.
After 16h of incubation, the supernatants were discarded and 100 μL of JC1-dye solution (prepared by diluting 1 mM DMSO stock in to 10 μM in 1×PBS) was added to each well. The cells were then incubated with the dye in CO2 incubator at 37° C. for 15 min. After 15 min of incubation, the supernatant was removed and the cells were washed twice with 1×PBS and then 100 μL of 1×PBS was added to each well. Red fluorescence (excitation 550 nm, emission 600 nm) and green fluorescence (excitation 485 nm, emission 535 nm) were measured using Biotek Synergy FIT plate reader. The mitochondrial membrane potential […] was calculated as the ratio of intensity of red fluorescence to intensity of green fluorescence described as follows:
ΔΨM=Intensity of red fluorescence/Intensity of green fluorescence
The percentage decrease of Red fluorescence/Green fluorescence corresponding to each treatment was calculated using the following formula:
Where X=Δψm corresponding to treated cells R=ΔΨM corresponding to control wells.

PANC-1 [2] = test: Annexin-V staining (flow cytometry); format: cell-based, Human; conditions: 24 h
Method: The cell lines were maintained in DMEM+10% FBS (heat inactivated) at 37° C. with 5% CO2, and 95% humidity. Antibiotics Penicillin (100 U/mL) and Streptomycin (100 μg/mL) were added to the medium.
The stock solution of recombinant lectin having the amino acid sequence of SEQ ID NO. […] Doxorubicin was used as positive control and stock solution was prepared in DMSO.
Cells were counted using hemocytometer and plated in culture plates at the density of 0.4×10^6 cells/well in DMEM+10% FBS in 6-well plates. Cells were incubated overnight to allow the cell recovery and exponential growth. Following overnight incubation, cells were treated with Lectin having the amino acid sequence of SEQ ID NO. 2 in DMEM+0% FBS at concentrations ranging from 2.5 μg/mL to 80 μg/mL. Untreated cells were included as Control group for sample. Cells treated with Doxorubicin were included as Positive Control group. DMSO treated cells were included as control group for Doxorubicin. After treatment, cells were incubated for a time period of 24 h.
Following incubation, the pro-apoptotic effect was estimated using Annexin assay kit as follows: Annexin reagent contains Annexin-V+7-AAD stain, which differentially labels apoptotic cells in different phases. Four populations of cells can be determined from the flow cytometric plots as follows: • a) Upper Left (UL)—7-AAD(+)/Annexin(−) or Necrotic cells • b) Upper Right (UR)—7-AAD(+)/Annexin(+) or Late apoptotic cells • c) Lower Left (LL)—7-AAD(−)/Annexin(−) or Viable/non-apoptotic cells • d) Lower Right (LR)—7-AAD(−)/Annexin(+) or Early apoptotic cells
Cells were gently harvested into pre-labeled sterile centrifuge tubes and centrifuged at 300×g for 5-7 min. Supernatant were discarded and the pellet was resuspended in 200 μl of fresh culture medium.
100 μl of cell suspension was transferred into pre-labeled sterile centrifuge tubes.
100 μl of Annexin-V reagent was added to each tube and incubated for 30 min at RT in dark.
Cells stained for Annexin-V were then transferred into 96-well plates and acquired on flow cytometer (Guava technologies). Percentage of cells in early apoptotic, late apoptotic and necrotic phase were determined.
Fold increase in apoptotic cells (treated with Test Items) was determined as compared to Control (untreated cells).

B1: SEQ ID NO. 2: recombinant lectin; variant of the S. rolfsii lectin amino acid sequence (reported as Rec-2 in WO 2010/095143) (protein)
chain: TYKITVRVYQTNPDAFFHPVEKTVWKYANGGTWTITDDQHVLTMGGSGTSGTLRFHADNGESFTATFGVHNYKRWCDIVTNLAADETGMVINQQYYSQKNREEARERQLSNYQVKNAKGRNFQIVYTEAEGNDLHANLIIG
modifications: In vitro synthesis
- Average Green fluorescence (PANC-1 [1]; 2.5 μg/mL): 315.0
- Average Red fluorescence (PANC-1 [1]; 2.5 μg/mL): 595.7
- Percentage decrease in MMP (%) (PANC-1 [1]; 2.5 μg/mL): 9.5%
- Red/Green ratio (PANC-1 [1]; 2.5 μg/mL): 1.89
- depolarization of mitochondrial membrane (PANC-1 [1]; 2.5 μg/mL-80 μg/mL): 9.5%-51.7%
- Average Green fluorescence (PANC-1 [1]; 5 μg/mL): 293.3
- Average Red fluorescence (PANC-1 [1]; 5 μg/mL): 452.3
- Percentage decrease in MMP (%) (PANC-1 [1]; 5 μg/mL): 26.2%
- Red/Green ratio (PANC-1 [1]; 5 μg/mL): 1.54
- Average Green fluorescence (PANC-1 [1]; 10 μg/mL): 271.7
- Average Red fluorescence (PANC-1 [1]; 10 μg/mL): 301.7
- Percentage decrease in MMP (%) (PANC-1 [1]; 10 μg/mL): 46.9%
- Red/Green ratio (PANC-1 [1]; 10 μg/mL): 1.11
- Average Green fluorescence (PANC-1 [1]; 20 μg/mL): 234.3
- Average Red fluorescence (PANC-1 [1]; 20 μg/mL): 265.7
- Percentage decrease in MMP (%) (PANC-1 [1]; 20 μg/mL): 45.8%
- Red/Green ratio (PANC-1 [1]; 20 μg/mL): 1.13
- Average Green fluorescence (PANC-1 [1]; 40 μg/mL): 263.3
- Average Red fluorescence (PANC-1 [1]; 40 μg/mL): 266.0
- Percentage decrease in MMP (%) (PANC-1 [1]; 40 μg/mL): 51.7%
- Red/Green ratio (PANC-1 [1]; 40 μg/mL): 1.01
- Average Green fluorescence (PANC-1 [1]; 80 μg/mL): 257.0
- Average Red fluorescence (PANC-1 [1]; 80 μg/mL): 272.0
- Percentage decrease in MMP (%) (PANC-1 [1]; 80 μg/mL): 49.4%
- Red/Green ratio (PANC-1 [1]; 80 μg/mL): 1.06
- % Population of cells, LL Annex− 7AAD− Viable (PANC-1 [2]; 2.5 μg/mL): 87.7%
- % Population of cells, LR Annex+ 7AAD− Early apoptotic (PANC-1 [2]; 2.5 μg/mL): 0.5%
- % Population of cells, UL Annex− 7AAD+ Necrotic (PANC-1 [2]; 2.5 μg/mL): 10.8%
- % Population of cells, UR Annex+ 7AAD+ Late apoptotic (PANC-1 [2]; 2.5 μg/mL): 1.0%
- Fold increase (wrt control), LR Annex+ 7-AAD− (PANC-1 [2]; 2.5 μg/mL): 5.0 fold
- Fold increase (wrt control), UL Annex− 7-AAD+ (PANC-1 [2]; 2.5 μg/mL): 1.0 fold
- Fold increase (wrt control), UR Annex+ 7-AAD+ (PANC-1 [2]; 2.5 μg/mL): 2.5 fold
- % Population of cells, LL Annex− 7AAD− Viable (PANC-1 [2]; 5 μg/mL): 81.3%
- % Population of cells, LR Annex+ 7AAD− Early apoptotic (PANC-1 [2]; 5 μg/mL): 0.4%
- % Population of cells, UL Annex− 7AAD+ Necrotic (PANC-1 [2]; 5 μg/mL): 15.5%
- % Population of cells, UR Annex+ 7AAD+ Late apoptotic (PANC-1 [2]; 5 μg/mL): 2.8%
- Fold increase (wrt control), LR Annex+ 7-AAD− (PANC-1 [2]; 5 μg/mL): 4.0 fold
- Fold increase (wrt control), UL Annex− 7-AAD+ (PANC-1 [2]; 5 μg/mL): 1.5 fold
- Fold increase (wrt control), UR Annex+ 7-AAD+ (PANC-1 [2]; 5 μg/mL): 7.0 fold
- % Population of cells, LL Annex− 7AAD− Viable (PANC-1 [2]; 10 μg/mL): 78.7%
- % Population of cells, LR Annex+ 7AAD− Early apoptotic (PANC-1 [2]; 10 μg/mL): 0.0%
- % Population of cells, UL Annex− 7AAD+ Necrotic (PANC-1 [2]; 10 μg/mL): 20.8%
- % Population of cells, UR Annex+ 7AAD+ Late apoptotic (PANC-1 [2]; 10 μg/mL): 0.4%
- Fold increase (wrt control), UL Annex− 7-AAD+ (PANC-1 [2]; 10 μg/mL): 2.0 fold
- Fold increase (wrt control), UR Annex+ 7-AAD+ (PANC-1 [2]; 10 μg/mL): 1.0 fold
- % Population of cells, LL Annex− 7AAD− Viable (PANC-1 [2]; 20 μg/mL): 71.5%
- % Population of cells, LR Annex+ 7AAD− Early apoptotic (PANC-1 [2]; 20 μg/mL): 0.0%
- % Population of cells, UL Annex− 7AAD+ Necrotic (PANC-1 [2]; 20 μg/mL): 28.1%
- % Population of cells, UR Annex+ 7AAD+ Late apoptotic (PANC-1 [2]; 20 μg/mL): 0.4%
- Fold increase (wrt control), UL Annex− 7-AAD+ (PANC-1 [2]; 20 μg/mL): 2.7 fold
- Fold increase (wrt control), UR Annex+ 7-AAD+ (PANC-1 [2]; 20 μg/mL): 1.0 fold
- % Population of cells, LL Annex− 7AAD− Viable (PANC-1 [2]; 80 μg/mL): 72.8%
- % Population of cells, LR Annex+ 7AAD− Early apoptotic (PANC-1 [2]; 80 μg/mL): 0.0%
- % Population of cells, UL Annex− 7AAD+ Necrotic (PANC-1 [2]; 80 μg/mL): 26.7%
- % Population of cells, UR Annex+ 7AAD+ Late apoptotic (PANC-1 [2]; 80 μg/mL): 0.5%
- Fold increase (wrt control), UL Annex− 7-AAD+ (PANC-1 [2]; 80 μg/mL): 2.6 fold
- Fold increase (wrt control), UR Annex+ 7-AAD+ (PANC-1 [2]; 80 μg/mL): 1.3 fold

— patent US20230348564A1, “ANTI-CANCER PROTEINS” (UNICHEM LABORATORIES LTD, priority 2020, published 2023)
